Patent US12616740B2, “Methods of using a GIP/GLP1 co-agonist for therapy” (ELI LILLY AND COMPANY, priority 2018, dated 2026)

Tests used:
[1] = NCT03131687: nausea, vomiting and diarrhea, new events per interval; type: in vivo, human
Procedure: Clinical Study (NCT03131687) Supporting Maintenance Dose Embodiments A 6-month (26-week) Phase 2 double-blind clinical study is designed to evaluate the safety, efficacy, and PK/PD of 4 dose levels (1 mg, 5 mg, 10 mg and 15 mg respectively) of tirzepatide once weekly by subcutaneous injection compared with dulaglutide 1.5 mg. once weekly (QW) and placebo QW in patients with T2DM who have inadequate glycemic control with diet and exercise with or without a stable dose of metformin. Tirzepatide dose is up-titrated to the maintenance dose using the following weekly dose increments:
The study also has a 4-week follow up period. In addition to safety and efficacy for treating T2DM, efficacy endpoints include the effect of tirzepatide on HbA1c, FBG, body weight, lipids, and waist circumference compared with placebo and with dulaglutide 1.5 mg. The study also evaluates the effect of tirzepatide on GI tolerability, hypoglycemia, hypersensitivity reactions, and pancreatic safety, as well as the development of treatment-emergent anti-drug antibodies. Model-based dose response analyses are performed to predict potential for significant HbA1c lowering and weight loss in longer studies. Statistical Analyses: Efficacy: The primary efficacy outcome of HbA1c change from baseline to the 26-week endpoint is analyzed using a Bayesian dose-response model. Analyses are performed on the intention to treat population (mITT) analysis set. Supportive analysis of the primary efficacy outcome for the mITT dataset are the model for post-baseline measures (MMRM) with body mass index (BMI) (<30 kg/m^2, ≥30 kg/m^2), metformin use, treatment, visit, and treatment-by-visit interaction as fixed effects, baseline HbA1c as a covariate, and patient as a random effect. The mean weight change from baseline at 12 and 26 weeks, along with the mean change from baseline of HbA1c at 12 weeks, is analyzed using similar dose-response models as the primary analyses. The percentages of patients with ≥5% or ≥10% body weight loss, reaching the HbA1c target of ≤6.5% or ≤7.0% at 26 weeks, or requiring rescue therapy are analyzed using logistic regression with fixed effects of treatment and strata, and baseline as a covariate. The changes from baseline in FBG (fasting blood glucose), SMBG (self-monitored blood glucose) levels, waist circumference, and mean percentage change in lipids from baseline to 12 and 26 weeks are analyzed using a similar MMRM to the one used for the primary analyses. Table Abbreviations: Dula 1.5 mg=dulaglutide 1.5 mg once weekly; LY means tirzepatide, and LY 1 mg=tirzepatide 1 mg once weekly; LY 5 mg=5 mg once weekly; LY 10 mg=escalation dose group tirzepatide once weekly with highest dose of 10 mg; LY 15 mg=escalation dose group of tirzepatide once weekly with highest dose 15 mg; LOCF=last observation-carried-forward; N=number of patients; pbo=placebo; Week 26=mITT on-treatment data at Week 26 excluding data after study drug discontinuation or rescue drug initiation; mITT=modified intent-to-treat; SD=standard deviation. For Table 4, n=number of patients in the population with baseline and post-baseline value at the specified time point. For Table 6, LY10 mg=escalation dose group tirzepatide, once weekly with highest dose of 10 mg; escalation dose: (5 mg weeks 0 and 1), LY15 mg=escalation dose group tirzepatide, once weekly with highest dose of 15 mg; escalation dose: (5 mg weeks 0 and 1; 10 mg weeks 2 to 5); N=number of patients in specified group, m=number of patients who experienced new event during interval, FolUp=follow up, T/Wk=Time range, (week) and %=means percent patients spending at least some time in treatment group who experienced new event during interval. For Table 7, n is the number of patients with events meeting the criteria; N is number of patients in the population; % is percent of patients in treatment group experiencing the event.

patients with T2DM = experiment: Biomarkers measured in clinical studies (eGFR, triglyceride); type: in vivo, human
Procedure: Clinically relevant biomarkers are measured in clinical studies to further support the use of tirzepatide for treating chronic kidney disease. […] Clinical study laboratory measurements support the use of tirzepatide in the treatment of chronic kidney disease. Clinically relevant biomarkers are measured to assess and support the use of tirzepatide in the treatment of atherosclerosis. Clinically relevant triglyceride levels decrease in all tirzepatide treatment groups. Clinical observations support that tirezepatide can be beneficial for use in the treatment of atherosclerosis.

[2] = LY10 mg (tirzepatide 5 mg weeks 0 and 1, then 10 mg once weekly), N = 51, Fol Up (follow up)
[3] = LY10 mg (tirzepatide 5 mg weeks 0 and 1, then 10 mg once weekly), N = 51, T/Wk 0
[4] = LY10 mg (tirzepatide 5 mg weeks 0 and 1, then 10 mg once weekly), N = 51, T/Wk 1
[5] = LY10 mg (tirzepatide 5 mg weeks 0 and 1, then 10 mg once weekly), N = 51, T/Wk 2
[6] = LY10 mg (tirzepatide 5 mg weeks 0 and 1, then 10 mg once weekly), N = 51, T/Wk 3
[7] = LY10 mg (tirzepatide 5 mg weeks 0 and 1, then 10 mg once weekly), N = 51, T/Wk 4
[8] = LY10 mg (tirzepatide 5 mg weeks 0 and 1, then 10 mg once weekly), N = 51, T/Wk 5
[9] = LY10 mg (tirzepatide 5 mg weeks 0 and 1, then 10 mg once weekly), N = 51, T/Wk 6
[10] = LY10 mg (tirzepatide 5 mg weeks 0 and 1, then 10 mg once weekly), N = 51, T/Wk 7
[11] = LY10 mg (tirzepatide 5 mg weeks 0 and 1, then 10 mg once weekly), N = 51, T/Wk 8
[12] = LY10 mg (tirzepatide 5 mg weeks 0 and 1, then 10 mg once weekly), N = 51, T/Wk 9
[13] = LY10 mg (tirzepatide 5 mg weeks 0 and 1, then 10 mg once weekly), N = 51, T/Wk 10
[14] = LY10 mg (tirzepatide 5 mg weeks 0 and 1, then 10 mg once weekly), N = 51, T/Wk 11
[15] = LY10 mg (tirzepatide 5 mg weeks 0 and 1, then 10 mg once weekly), N = 51, T/Wk 12
[16] = LY10 mg (tirzepatide 5 mg weeks 0 and 1, then 10 mg once weekly), N = 51, T/Wk >12 < 16
[17] = LY10 mg (tirzepatide 5 mg weeks 0 and 1, then 10 mg once weekly), N = 51, T/Wk >16 ≤ 20
[18] = LY10 mg (tirzepatide 5 mg weeks 0 and 1, then 10 mg once weekly), N = 51, T/Wk >20
[19] = LY15 mg (tirzepatide 5 mg weeks 0 and 1; 10 mg weeks 2 to 5; then 15 mg once weekly), N = 53, Fol Up (follow up)
[20] = LY15 mg (tirzepatide 5 mg weeks 0 and 1; 10 mg weeks 2 to 5; then 15 mg once weekly), N = 53, T/Wk 0
[21] = LY15 mg (tirzepatide 5 mg weeks 0 and 1; 10 mg weeks 2 to 5; then 15 mg once weekly), N = 53, T/Wk 1
[22] = LY15 mg (tirzepatide 5 mg weeks 0 and 1; 10 mg weeks 2 to 5; then 15 mg once weekly), N = 53, T/Wk 2
[23] = LY15 mg (tirzepatide 5 mg weeks 0 and 1; 10 mg weeks 2 to 5; then 15 mg once weekly), N = 53, T/Wk 3
[24] = LY15 mg (tirzepatide 5 mg weeks 0 and 1; 10 mg weeks 2 to 5; then 15 mg once weekly), N = 53, T/Wk 4
[25] = LY15 mg (tirzepatide 5 mg weeks 0 and 1; 10 mg weeks 2 to 5; then 15 mg once weekly), N = 53, T/Wk 5
[26] = LY15 mg (tirzepatide 5 mg weeks 0 and 1; 10 mg weeks 2 to 5; then 15 mg once weekly), N = 53, T/Wk 6
[27] = LY15 mg (tirzepatide 5 mg weeks 0 and 1; 10 mg weeks 2 to 5; then 15 mg once weekly), N = 53, T/Wk 7
[28] = LY15 mg (tirzepatide 5 mg weeks 0 and 1; 10 mg weeks 2 to 5; then 15 mg once weekly), N = 53, T/Wk 8
[29] = LY15 mg (tirzepatide 5 mg weeks 0 and 1; 10 mg weeks 2 to 5; then 15 mg once weekly), N = 53, T/Wk 9
[30] = LY15 mg (tirzepatide 5 mg weeks 0 and 1; 10 mg weeks 2 to 5; then 15 mg once weekly), N = 53, T/Wk 10
[31] = LY15 mg (tirzepatide 5 mg weeks 0 and 1; 10 mg weeks 2 to 5; then 15 mg once weekly), N = 53, T/Wk 11
[32] = LY15 mg (tirzepatide 5 mg weeks 0 and 1; 10 mg weeks 2 to 5; then 15 mg once weekly), N = 53, T/Wk 12
[33] = LY15 mg (tirzepatide 5 mg weeks 0 and 1; 10 mg weeks 2 to 5; then 15 mg once weekly), N = 53, T/Wk >12 < 16
[34] = LY15 mg (tirzepatide 5 mg weeks 0 and 1; 10 mg weeks 2 to 5; then 15 mg once weekly), N = 53, T/Wk >16 ≤ 20
[35] = LY15 mg (tirzepatide 5 mg weeks 0 and 1; 10 mg weeks 2 to 5; then 15 mg once weekly), N = 53, T/Wk >20

tirzepatide [LY]
Nausea Vomiting and Diarrhea: % patients who experienced new event during interval [1, 2]: 2.1% | Nausea Vomiting and Diarrhea: m, number of patients who experienced new event during interval [1, 2]: 1 | Nausea Vomiting and Diarrhea: % patients who experienced new event during interval [1, 3]: 20% | Nausea Vomiting and Diarrhea: m, number of patients who experienced new event during interval [1, 3]: 9 | Nausea Vomiting and Diarrhea: % patients who experienced new event during interval [1, 4]: 3.9% | Nausea Vomiting and Diarrhea: m, number of patients who experienced new event during interval [1, 4]: 2 | Nausea Vomiting and Diarrhea: % patients who experienced new event during interval [1, 5]: 3.9% | Nausea Vomiting and Diarrhea: m, number of patients who experienced new event during interval [1, 5]: 2 | Nausea Vomiting and Diarrhea: % patients who experienced new event during interval [1, 6]: 2.0% | Nausea Vomiting and Diarrhea: m, number of patients who experienced new event during interval [1, 6]: 1 | Nausea Vomiting and Diarrhea: % patients who experienced new event during interval [1, 7]: 6.0% | Nausea Vomiting and Diarrhea: m, number of patients who experienced new event during interval [1, 7]: 3 | Nausea Vomiting and Diarrhea: % patients who experienced new event during interval [1, 8]: 4.0% | Nausea Vomiting and Diarrhea: m, number of patients who experienced new event during interval [1, 8]: 2 | Nausea Vomiting and Diarrhea: % patients who experienced new event during interval [1, 9]: 2.0% | Nausea Vomiting and Diarrhea: m, number of patients who experienced new event during interval [1, 9]: 1 | Nausea Vomiting and Diarrhea: % patients who experienced new event during interval [1, 10]: 4.1% | Nausea Vomiting and Diarrhea: m, number of patients who experienced new event during interval [1, 10]: 2 | Nausea Vomiting and Diarrhea: % patients who experienced new event during interval [1, 11]: 2.0% | Nausea Vomiting and Diarrhea: m, number of patients who experienced new event during interval [1, 11]: 1 | Nausea Vomiting and Diarrhea: % patients who experienced new event during interval [1, 12]: 4.1% | Nausea Vomiting and Diarrhea: m, number of patients who experienced new event during interval [1, 12]: 2 | Nausea Vomiting and Diarrhea: % patients who experienced new event during interval [1, 13]: m = 0; 0% | Nausea Vomiting and Diarrhea: m, number of patients who experienced new event during interval [1, 13]: m = 0; 0% | Nausea Vomiting and Diarrhea: % patients who experienced new event during interval [1, 14]: m = 0; 0% | Nausea Vomiting and Diarrhea: m, number of patients who experienced new event during interval [1, 14]: m = 0; 0% | Nausea Vomiting and Diarrhea: % patients who experienced new event during interval [1, 15]: 2.0% | Nausea Vomiting and Diarrhea: m, number of patients who experienced new event during interval [1, 15]: 1 | Nausea Vomiting and Diarrhea: % patients who experienced new event during interval [1, 16]: 2.0% | Nausea Vomiting and Diarrhea: m, number of patients who experienced new event during interval [1, 16]: 1 | Nausea Vomiting and Diarrhea: % patients who experienced new event during interval [1, 17]: 2.1% | Nausea Vomiting and Diarrhea: m, number of patients who experienced new event during interval [1, 17]: 1 | Nausea Vomiting and Diarrhea: % patients who experienced new event during interval [1, 18]: 2.1% | Nausea Vomiting and Diarrhea: m, number of patients who experienced new event during interval [1, 18]: 1 | Nausea Vomiting and Diarrhea: % patients who experienced new event during interval [1, 19]: 0.0% | Nausea Vomiting and Diarrhea: m, number of patients who experienced new event during interval [1, 19]: 0 | Nausea Vomiting and Diarrhea: % patients who experienced new event during interval [1, 20]: 32.1% | Nausea Vomiting and Diarrhea: m, number of patients who experienced new event during interval [1, 20]: 17 | Nausea Vomiting and Diarrhea: % patients who experienced new event during interval [1, 21]: 18.9% | Nausea Vomiting and Diarrhea: m, number of patients who experienced new event during interval [1, 21]: 10 | Nausea Vomiting and Diarrhea: % patients who experienced new event during interval [1, 22]: 5.8% | Nausea Vomiting and Diarrhea: m, number of patients who experienced new event during interval [1, 22]: 3 | Nausea Vomiting and Diarrhea: % patients who experienced new event during interval [1, 23]: 11.4% | Nausea Vomiting and Diarrhea: m, number of patients who experienced new event during interval [1, 23]: 6 | Nausea Vomiting and Diarrhea: % patients who experienced new event during interval [1, 24]: 5.9% | Nausea Vomiting and Diarrhea: m, number of patients who experienced new event during interval [1, 24]: 3 | Nausea Vomiting and Diarrhea: % patients who experienced new event during interval [1, 25]: 2.0% | Nausea Vomiting and Diarrhea: m, number of patients who experienced new event during interval [1, 25]: 1 | Nausea Vomiting and Diarrhea: % patients who experienced new event during interval [1, 26]: 3.9% | Nausea Vomiting and Diarrhea: m, number of patients who experienced new event during interval [1, 26]: 2 | Nausea Vomiting and Diarrhea: % patients who experienced new event during interval [1, 27]: 5.9% | Nausea Vomiting and Diarrhea: m, number of patients who experienced new event during interval [1, 27]: 3 | Nausea Vomiting and Diarrhea: % patients who experienced new event during interval [1, 28]: 4.0% | Nausea Vomiting and Diarrhea: m, number of patients who experienced new event during interval [1, 28]: 2 | Nausea Vomiting and Diarrhea: % patients who experienced new event during interval [1, 29]: 0.0% | Nausea Vomiting and Diarrhea: m, number of patients who experienced new event during interval [1, 29]: 0 | Nausea Vomiting and Diarrhea: % patients who experienced new event during interval [1, 30]: 0.0% | Nausea Vomiting and Diarrhea: m, number of patients who experienced new event during interval [1, 30]: 0 | Nausea Vomiting and Diarrhea: % patients who experienced new event during interval [1, 31]: 2.0% | Nausea Vomiting and Diarrhea: m, number of patients who experienced new event during interval [1, 31]: 1 | Nausea Vomiting and Diarrhea: % patients who experienced new event during interval [1, 32]: 2.1% | Nausea Vomiting and Diarrhea: m, number of patients who experienced new event during interval [1, 32]: 1 | Nausea Vomiting and Diarrhea: % patients who experienced new event during interval [1, 33]: 2.1% | Nausea Vomiting and Diarrhea: m, number of patients who experienced new event during interval [1, 33]: 1 | Nausea Vomiting and Diarrhea: % patients who experienced new event during interval [1, 34]: 2.1% | Nausea Vomiting and Diarrhea: m, number of patients who experienced new event during interval [1, 34]: 1 | Nausea Vomiting and Diarrhea: % patients who experienced new event during interval [1, 35]: 2.1% | Nausea Vomiting and Diarrhea: m, number of patients who experienced new event during interval [1, 35]: 1 | triglyceride levels (in words) (patients with T2DM; all tirzepatide treatment groups): decrease | eGFR (in words) (patients with T2DM; study NCT03131687, at any dosage): no decrease in eGFR was observed
